Kd data for 1 molecule are collected here from doi:10.1101/2022.08.07.503104, “A tripartite complex HIV-1 Tat-cyclophilin A-capsid protein enables Tat encapsidation that is required for HIV-1 infectivity” (bioRxiv, 2022).

Assay [1] concerns the target T1, Recombinant human CypA (human, UniProt P62937 1-165, Monolith RED-NHS 2nd generation fluorescent label, in the MST experiments only).
T1 construct: extra N-terminal gly residue left after TEV cleavage; cyclophilin A (CypA), human; Unlabeled in SEC and SPR, labeled in MST; also called cyclophilin A; labeled CypA; source: E. coli BL21 λDE3, purified (Ni-NTA, TEV cleavage, second Ni-NTA); not shown: His6, N-terminal, cleaved
The assay can be described thus: SPR; Tat immobilised on a CM5S chip by amine coupling (~11000 RU); CypA or equimolecular CypA/CA mix at 370-6000 nM, one cycle kinetic titration, or CA at 2 µM; 25°C, 20 mM phosphate, 30 mM citrate, pH 7, 150 mM NaCl, 0.05% P20; two state fitting model. The settings on record: both partners purified.

Assay [2] concerns the target T1, Recombinant human CypA. Nature of the assay: MST; fluorescently labeled CypA at 50 nM, partner titrated; where indicated CypA first mixed with 20 µM CA or 1 µM Tat; 20°C, 150 mM NaCl, 50 mM citrate, pH 7.3, 0.05% Tween. The settings on record: both partners purified.

T1 sequence (P62937 other isoform, or with tags, fused parts or gaps): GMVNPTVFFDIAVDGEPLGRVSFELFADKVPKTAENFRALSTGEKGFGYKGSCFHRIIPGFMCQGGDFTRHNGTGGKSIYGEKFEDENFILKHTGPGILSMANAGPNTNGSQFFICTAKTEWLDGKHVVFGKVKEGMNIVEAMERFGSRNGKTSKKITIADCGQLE

B1: Recombinant Tat (86 residues, BH10 isolate) (natural protein)
chain: MEPVDPRLEPWKHPGSQPKTACTNCYCKKCCFHCQVCFITKALGISYGRKKRRQRRRPPQGSQTHQVSLSKQPTSQSRGDPTGPKE
notes: HIV-1 Tat, BH10 isolate, 86 residues; source: E. coli, purified (as Vendeville et al., 2004); lyophilized
By Kd is commonly meant the constant that tells how readily two partners part at equilibrium. For the molecule B1, the Kd with Recombinant human CypA [1] is 255 ± 10 nM; with Recombinant human CypA [2] it was 243 ± 23 nM.
